Source: patent US20140087995A1 (published 2014)
Numbered stars: 1 amine (or outer) side, 2 acyl side, 3 side chain; on linkers, the order of the positions; unused ones are H or OH. Bridge positions count the residues as written; N and C are the ends. Side chains are listed from the residue outwards. Ends that are not written are not given here. * marks the point of attachment. C20 diacid = O=C(O)CCCCCCCCCCCCCCCCCCC(=O)*; γGlu = O=C(O)[C@H](CCC(=O)[*:2])N[*:1]; AEEA = NCCOCCOCC(=O)O

T1: rat calcitonin receptor (rat, UniProt P32214 25-516)
T1 construct: whole, on cells; Membranes of BHK tk'ts 13 cells transiently transfected with the rat calcitonin receptor; also called rCTR; rat calcitonin (a) receptor
T1 sequence (looked up): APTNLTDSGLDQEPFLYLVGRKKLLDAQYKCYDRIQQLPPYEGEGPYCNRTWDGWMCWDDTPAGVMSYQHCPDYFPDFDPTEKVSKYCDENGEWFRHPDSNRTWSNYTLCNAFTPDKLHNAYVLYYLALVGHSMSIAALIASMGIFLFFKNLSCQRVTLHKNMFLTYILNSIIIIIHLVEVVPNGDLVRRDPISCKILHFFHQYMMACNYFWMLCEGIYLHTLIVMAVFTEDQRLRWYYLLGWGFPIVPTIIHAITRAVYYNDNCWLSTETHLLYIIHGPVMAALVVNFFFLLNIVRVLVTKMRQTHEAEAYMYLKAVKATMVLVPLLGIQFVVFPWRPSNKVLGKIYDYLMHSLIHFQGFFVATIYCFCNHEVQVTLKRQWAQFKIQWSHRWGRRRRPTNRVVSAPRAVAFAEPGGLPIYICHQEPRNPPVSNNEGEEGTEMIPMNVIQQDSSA

T2: human calcitonin receptor (human, UniProt P30988 25-474)
T2 construct: whole, on cells; Membranes of a BHK tk'ts 13 cell line stably transfected with the human calcitonin receptor; also called hCTR; hCT
T2 sequence (looked up): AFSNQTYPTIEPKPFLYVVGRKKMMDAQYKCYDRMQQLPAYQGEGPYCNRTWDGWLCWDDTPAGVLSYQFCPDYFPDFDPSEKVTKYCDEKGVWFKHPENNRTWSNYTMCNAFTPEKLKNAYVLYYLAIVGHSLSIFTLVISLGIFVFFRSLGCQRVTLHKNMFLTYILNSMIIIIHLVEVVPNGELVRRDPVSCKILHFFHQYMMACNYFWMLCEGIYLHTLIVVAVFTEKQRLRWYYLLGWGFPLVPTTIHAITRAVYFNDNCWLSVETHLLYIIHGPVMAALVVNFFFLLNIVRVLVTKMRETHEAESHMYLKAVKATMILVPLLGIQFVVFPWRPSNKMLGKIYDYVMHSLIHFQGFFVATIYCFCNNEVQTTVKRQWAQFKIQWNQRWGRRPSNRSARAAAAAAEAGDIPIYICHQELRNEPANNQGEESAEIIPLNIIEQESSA

T3: rat amylin receptor (rat calcitonin receptor + rat RAMP 3) (rat, UniProt P32214 25-516; Q9JJ73 23-147)
T3 construct: whole, on cells; Membranes of BHK tk'ts 13 cells transiently transfected with the rat calcitonin receptor and rat RAMP 3; also called rAmylin-R; rat amylin 3(a) receptor
T3 sequence (looked up) 1: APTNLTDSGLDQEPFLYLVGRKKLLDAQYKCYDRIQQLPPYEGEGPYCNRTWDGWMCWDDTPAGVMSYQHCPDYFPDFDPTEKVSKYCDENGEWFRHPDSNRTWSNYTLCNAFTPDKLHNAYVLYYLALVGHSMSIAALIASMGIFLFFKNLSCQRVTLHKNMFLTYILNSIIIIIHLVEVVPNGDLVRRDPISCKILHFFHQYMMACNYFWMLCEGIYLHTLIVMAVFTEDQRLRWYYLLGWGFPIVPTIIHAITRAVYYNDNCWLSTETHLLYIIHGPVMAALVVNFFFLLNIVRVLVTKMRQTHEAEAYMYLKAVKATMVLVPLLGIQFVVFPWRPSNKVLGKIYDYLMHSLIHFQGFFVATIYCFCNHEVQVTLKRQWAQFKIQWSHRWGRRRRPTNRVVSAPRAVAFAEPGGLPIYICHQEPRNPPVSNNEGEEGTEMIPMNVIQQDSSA
T3 sequence (looked up) 2: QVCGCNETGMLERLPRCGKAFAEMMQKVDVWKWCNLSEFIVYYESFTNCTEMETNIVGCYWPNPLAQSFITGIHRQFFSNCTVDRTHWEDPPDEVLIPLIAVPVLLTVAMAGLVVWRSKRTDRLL


Experiments:
rat calcitonin receptor [1] = molecular target: T1, rat calcitonin receptor; test: SPA competition vs 125I-calcitonin, membranes with rat CTR (Assay VIII)
rat calcitonin receptor [2] = molecular target: T1, rat calcitonin receptor; test: IC50 at rCTR divided by IC50 at rAmylin-R (reference)
[3] = molecular target: T2, human calcitonin receptor; test: IC50 at hCTR divided by IC50 at hAmylin-R (reference)
Summary of the method: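 Competition binding by SPA uses membrane preparations (35 ng/μL final) in pH 7.4 Hepes buffer with 1 mM CaCl2 and 5 mM MgCl₂. Incubation lasts 120 min at 25° C, and IC₅₀ comes from one-site fitting.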

[4] = molecular target: T3, rat amylin receptor (rat calcitonin …); test: SPA competition vs 125I-rat amylin, membranes with rat CTR + rat RAMP3 (Assay VI)

Binder | IC50 (rat calcitonin receptor [1]) | Ratio rCT/rAmylin binding (rat calcitonin receptor [2]) | Ratio hCT/hAmylin binding [3] | IC50 [4]
{C20 diacid-γGlu}-KCNTATCATQRLAEFLRHSSPNFGAIPSSTNVGPNTY-NH2 (disulfide 2-7; SMILES CC[C@H](C)[C@H](NC(=O)[C@H](C)NC(=O)CNC(=O)[C@H](Cc1ccccc1)NC(=O)[C@H](CC(N)=O)NC(=O)[C@@H]1CCCN1C(=O)[C@H](CO)NC(=O)[C@H](CO)NC(=O)[C@H](Cc1c[nH]cn1)NC(=O)[C@H](CCCNC(=N)N)NC(=O)[C@H](CC(C)C)NC(=O)[C@H](Cc1ccccc1)NC(=O)[C@H](CCC(=O)O)NC(=O)[C@H](C)NC(=O)[C@H](CC(C)C)NC(=O)[C@H](CCCNC(=N)N)NC(=O)[C@H](CCC(N)=O)NC(=O)[C@@H](NC(=O)[C@H](C)NC(=O)[C@@H]1CSSC[C@H](NC(=O)[C@H](CCCCN)NC(=O)CC[C@H](NC(=O)CCCCCCCCCCCCCCCCCCC(=O)O)C(=O)O)C(=O)N[C@@H](CC(N)=O)C(=O)N[C@@H]([C@@H](C)O)C(=O)N[C@@H](C)C(=O)N[C@@H]([C@@H](C)O)C(=O)N1)[C@@H](C)O)C(=O)N1CCC[C@H]1C(=O)N[C@@H](CO)C(=O)N[C@@H](CO)C(=O)N[C@H](C(=O)N[C@@H](CC(N)=O)C(=O)N[C@H](C(=O)NCC(=O)N1CCC[C@H]1C(=O)N[C@@H](CC(N)=O)C(=O)N[C@H](C(=O)N[C@@H](Cc1ccc(O)cc1)C(N)=O)[C@@H](C)O)C(C)C)[C@@H](C)O, modifications are with respect to human amylin; also called compound 32) | 5.98 nM | 34 | 10.9 | 0.176 nM
{C20 diacid-γGlu}-KCNTATCATQRLAEFLRHSSPNFGAILPSTNVGSETY-NH2 (disulfide 2-7, modifications are with respect to human amylin; also called compound 33) | 28.9 nM | 12.6 | 3.9 | 2.29 nM
K([AEEA-γGlu-C20 diacid])CNTATCATQRLANFLRHSSPNFGAIPSSTNVGSETY-NH2 (disulfide 2-7; N-terminus assumed; SMILES CC[C@H](C)[C@H](NC(=O)[C@H](C)NC(=O)CNC(=O)[C@H](Cc1ccccc1)NC(=O)[C@H](CC(N)=O)NC(=O)[C@@H]1CCCN1C(=O)[C@H](CO)NC(=O)[C@H](CO)NC(=O)[C@H](Cc1c[nH]cn1)NC(=O)[C@H](CCCNC(=N)N)NC(=O)[C@H](CC(C)C)NC(=O)[C@H](Cc1ccccc1)NC(=O)[C@H](CC(N)=O)NC(=O)[C@H](C)NC(=O)[C@H](CC(C)C)NC(=O)[C@H](CCCNC(=N)N)NC(=O)[C@H](CCC(N)=O)NC(=O)[C@@H](NC(=O)[C@H](C)NC(=O)[C@@H]1CSSC[C@H](NC(=O)[C@@H](N)CCCCNC(=O)COCCOCCNC(=O)CC[C@H](NC(=O)CCCCCCCCCCCCCCCCCCC(=O)O)C(=O)O)C(=O)N[C@@H](CC(N)=O)C(=O)N[C@@H]([C@@H](C)O)C(=O)N[C@@H](C)C(=O)N[C@@H]([C@@H](C)O)C(=O)N1)[C@@H](C)O)C(=O)N1CCC[C@H]1C(=O)N[C@@H](CO)C(=O)N[C@@H](CO)C(=O)N[C@H](C(=O)N[C@@H](CC(N)=O)C(=O)N[C@H](C(=O)NCC(=O)N[C@@H](CO)C(=O)N[C@@H](CCC(=O)O)C(=O)N[C@H](C(=O)N[C@@H](Cc1ccc(O)cc1)C(N)=O)[C@@H](C)O)C(C)C)[C@@H](C)O, modifications are with respect to human amylin; also called compound 26) | 152 nM | 309 | 47.5 | 0.491 nM

Now from value to binder:

IC50 (rat calcitonin receptor [1]) | Ratio rCT/rAmylin binding (rat calcitonin receptor [2]) | Ratio hCT/hAmylin binding [3] | IC50 [4] | Binder
131 nM | 37.7 | 56.5 | 3.48 nM | K([AEEA-AEEA-γGlu-C20 diacid])CNTATCATQRLANFLRHSSPNFGAIPSSTNVGSETY-NH2 (disulfide 2-7; N-terminus assumed; SMILES CC[C@H](C)[C@H](NC(=O)[C@H](C)NC(=O)CNC(=O)[C@H](Cc1ccccc1)NC(=O)[C@H](CC(N)=O)NC(=O)[C@@H]1CCCN1C(=O)[C@H](CO)NC(=O)[C@H](CO)NC(=O)[C@H](Cc1c[nH]cn1)NC(=O)[C@H](CCCNC(=N)N)NC(=O)[C@H](CC(C)C)NC(=O)[C@H](Cc1ccccc1)NC(=O)[C@H](CC(N)=O)NC(=O)[C@H](C)NC(=O)[C@H](CC(C)C)NC(=O)[C@H](CCCNC(=N)N)NC(=O)[C@H](CCC(N)=O)NC(=O)[C@@H](NC(=O)[C@H](C)NC(=O)[C@@H]1CSSC[C@H](NC(=O)[C@@H](N)CCCCNC(=O)COCCOCCNC(=O)COCCOCCNC(=O)CC[C@H](NC(=O)CCCCCCCCCCCCCCCCCCC(=O)O)C(=O)O)C(=O)N[C@@H](CC(N)=O)C(=O)N[C@@H]([C@@H](C)O)C(=O)N[C@@H](C)C(=O)N[C@@H]([C@@H](C)O)C(=O)N1)[C@@H](C)O)C(=O)N1CCC[C@H]1C(=O)N[C@@H](CO)C(=O)N[C@@H](CO)C(=O)N[C@H](C(=O)N[C@@H](CC(N)=O)C(=O)N[C@H](C(=O)NCC(=O)N[C@@H](CO)C(=O)N[C@@H](CCC(=O)O)C(=O)N[C@H](C(=O)N[C@@H](Cc1ccc(O)cc1)C(N)=O)[C@@H](C)O)C(C)C)[C@@H](C)O, modifications are with respect to human amylin; also called compound 25)
62.5 nM | 28.5 | 12.3 | 2.19 nM | {C20 diacid-γGlu}-KCNTATCATQRLAEFLRHSSPNFGAIPSSTNVGSETY-NH2 (disulfide 2-7; SMILES CC[C@H](C)[C@H](NC(=O)[C@H](C)NC(=O)CNC(=O)[C@H](Cc1ccccc1)NC(=O)[C@H](CC(N)=O)NC(=O)[C@@H]1CCCN1C(=O)[C@H](CO)NC(=O)[C@H](CO)NC(=O)[C@H](Cc1c[nH]cn1)NC(=O)[C@H](CCCNC(=N)N)NC(=O)[C@H](CC(C)C)NC(=O)[C@H](Cc1ccccc1)NC(=O)[C@H](CCC(=O)O)NC(=O)[C@H](C)NC(=O)[C@H](CC(C)C)NC(=O)[C@H](CCCNC(=N)N)NC(=O)[C@H](CCC(N)=O)NC(=O)[C@@H](NC(=O)[C@H](C)NC(=O)[C@@H]1CSSC[C@H](NC(=O)[C@H](CCCCN)NC(=O)CC[C@H](NC(=O)CCCCCCCCCCCCCCCCCCC(=O)O)C(=O)O)C(=O)N[C@@H](CC(N)=O)C(=O)N[C@@H]([C@@H](C)O)C(=O)N[C@@H](C)C(=O)N[C@@H]([C@@H](C)O)C(=O)N1)[C@@H](C)O)C(=O)N1CCC[C@H]1C(=O)N[C@@H](CO)C(=O)N[C@@H](CO)C(=O)N[C@H](C(=O)N[C@@H](CC(N)=O)C(=O)N[C@H](C(=O)NCC(=O)N[C@@H](CO)C(=O)N[C@@H](CCC(=O)O)C(=O)N[C@H](C(=O)N[C@@H](Cc1ccc(O)cc1)C(N)=O)[C@@H](C)O)C(C)C)[C@@H](C)O, modifications are with respect to human amylin; also called compound 22)
114 nM | 36.1 | 23.6 | 3.14 nM | {C20 diacid-γGlu}-KCNTATCATQRLAHFLRHSSPNFGAIPSSTNVGSETY-NH2 (disulfide 2-7; SMILES CC[C@H](C)[C@H](NC(=O)[C@H](C)NC(=O)CNC(=O)[C@H](Cc1ccccc1)NC(=O)[C@H](CC(N)=O)NC(=O)[C@@H]1CCCN1C(=O)[C@H](CO)NC(=O)[C@H](CO)NC(=O)[C@H](Cc1c[nH]cn1)NC(=O)[C@H](CCCNC(=N)N)NC(=O)[C@H](CC(C)C)NC(=O)[C@H](Cc1ccccc1)NC(=O)[C@H](Cc1c[nH]cn1)NC(=O)[C@H](C)NC(=O)[C@H](CC(C)C)NC(=O)[C@H](CCCNC(=N)N)NC(=O)[C@H](CCC(N)=O)NC(=O)[C@@H](NC(=O)[C@H](C)NC(=O)[C@@H]1CSSC[C@H](NC(=O)[C@H](CCCCN)NC(=O)CC[C@H](NC(=O)CCCCCCCCCCCCCCCCCCC(=O)O)C(=O)O)C(=O)N[C@@H](CC(N)=O)C(=O)N[C@@H]([C@@H](C)O)C(=O)N[C@@H](C)C(=O)N[C@@H]([C@@H](C)O)C(=O)N1)[C@@H](C)O)C(=O)N1CCC[C@H]1C(=O)N[C@@H](CO)C(=O)N[C@@H](CO)C(=O)N[C@H](C(=O)N[C@@H](CC(N)=O)C(=O)N[C@H](C(=O)NCC(=O)N[C@@H](CO)C(=O)N[C@@H](CCC(=O)O)C(=O)N[C@H](C(=O)N[C@@H](Cc1ccc(O)cc1)C(N)=O)[C@@H](C)O)C(C)C)[C@@H](C)O, modifications are with respect to human amylin; also called compound 30)
